The values below come from publication PMC5877544, “D181A Site-Mutagenesis Enhances Both the Hydrolyzing and Transfructosylating Activities of BmSUC1, a Novel β-Fructofuranosidase in the Silkworm Bombyx mori” (International Journal of Molecular Sciences, 2018).

Substrate in series [1]: OC[C@H]1O[C@@](CO)(O[C@H]2O[C@H](CO)[C@@H](O)[C@H](O)[C@H]2O)[C@@H](O)[C@@H]1O
In words: purified protein. It is filed as biochemical, Bombyx mori. The note with it: 10 mM Britton-Robinson buffer pH 7.0, 30 °C (standard assay), 2 μg protein, sucrose 40-280 mM.

Substrate in series [2]: OC[C@H]1O[C@H](OC[C@H]2O[C@H](O[C@]3(CO)O[C@H](CO)[C@@H](O)[C@@H]3O)[C@H](O)[C@@H](O)[C@@H]2O)[C@H](O)[C@@H](O)[C@H]1O
In words: purified protein. It counts as biochemical, Bombyx mori. The settings on record: 10 mM Britton-Robinson buffer pH 7.0, 30 °C (standard assay), 2 μg protein, raffinose 10-70 mM.

Changes are numbered by the printed parent chain. Numbers in names are those of the source.

B1: BmSUC1 (wtBmSUC1) (Bombyx mori) (protein)
chain: LRQQNETTKRELEEYIADKKAEINPRYRPHYHISPPVGWMNDPNGFSYYKEKFHLFYQFYPYDSVWGPMHWGHVSSSNLIDWEHLPTALIPETEMCFSGGAVVHGDDLVLLYTGRVTTDTDPFYNETQYLAFSNDGVNFRKYEGNPVLSYVPDNSADFRDPKIWKFKDHWYVVIGSSSNKRGRVLLYRSGDLFNWEFLSVLGESDGDMGYMWECPDLFELGGKTIFLWSPQGLEPKGDRYKNTYQTGYYIGELDYETFEFKTDKYFQELDYGHDFYATQTIQGDGKTYLIGWFNMWEVPHLEKEDGWAGTTTLVRELQLIGTRITMNPLEGIQDLRTDSVHNGDLEPQQAIEFGPTAEIILQGCLDQKIELLIQGKEGGLVTTVTWDPEVGKVIVNRSGEVRQVEWVPIGKTSWRLFLDASSLELFCGEGEVVFSSRIFSDGDWVVKNSSPQTLSVEAYRLRRSVPA
notes: full coding region (488 aa, about 56 kDa), C-terminal 6xHis tag kept; expressed in BmN cells by Bac-to-Bac/BmNPV, secreted (N-terminal signal peptide), Ni-NTA purified from culture medium
Broadly, the Km is the concentration of substrate that gives half-maximal velocity. What is called kcat is the maximal rate divided by the concentration of active sites. In general, kcat/Km refers to the second-order rate constant that governs catalysis at low substrate concentration. Regarding B1, in series [1], the Km is 88.32 ± 11.75 mM, the kcat came out at 0.022 ± 0.0009 s⁻¹ and the kcat/Km was 0.249 M⁻¹ s⁻¹. For the same protein, in series [2], the Km is recorded as 52.32 ± 17.22 mM, the kcat turned out to be 0.025 ± 0.0028 s⁻¹ and the kcat/Km turned out to be 0.291 M⁻¹ s⁻¹.

B2: BmSUC1 (wtBmSUC1) (Bombyx mori; D181A) (protein)
chain: B1 chain with D160A
notes: as for B1
For B2, in series [1], the Km is 52.87 ± 6.85 mM, the kcat was determined as 0.025 ± 0.0004 s⁻¹ and the kcat/Km came to 0.473 M⁻¹ s⁻¹. Besides, in series [2], the Km was 32.03 ± 4.43 mM, the catalytic constant (kcat) came out at 0.021 ± 0.0014 s⁻¹ and the kcat/Km is 0.656 M⁻¹ s⁻¹.
